Data set [1] concerns the target Hsc70 nucleotide binding domain (human Hsc70 1-381) (human, UniProt P11142 1-381). Put plainly: pull-down.
Data set [2] concerns the molecule itself. The data set is described as follows: AUC.
Data set [3] concerns the molecule itself. The data set is described as follows: AUC. This is another data set of the same source.

Hsc70 nucleotide binding domain (human Hsc70 1-381), sequence (P11142 1-381): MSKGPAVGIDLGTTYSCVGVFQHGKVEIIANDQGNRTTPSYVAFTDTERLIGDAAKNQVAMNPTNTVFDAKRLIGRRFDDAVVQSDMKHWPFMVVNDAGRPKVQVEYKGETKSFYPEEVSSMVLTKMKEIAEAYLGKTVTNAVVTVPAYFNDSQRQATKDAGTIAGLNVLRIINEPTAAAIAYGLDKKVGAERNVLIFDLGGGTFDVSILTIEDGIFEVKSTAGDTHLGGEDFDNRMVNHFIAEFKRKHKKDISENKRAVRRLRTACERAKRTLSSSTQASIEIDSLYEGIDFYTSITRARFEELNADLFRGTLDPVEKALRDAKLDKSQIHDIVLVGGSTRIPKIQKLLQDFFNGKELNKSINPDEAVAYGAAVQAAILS

B1: GST-fused full-length human Bag2, wild type (natural protein, UniProt O95816 1-211, looked up)
chain: MAQAKINAKANEGRFCRSSSMADRSSRLLESLDQLELRVEALREAATAVEQEKEILLEMIHSIQNSQDMRQISDGEREELNLTANRLMGRTLTVEVSVETIRNPQQQESLKHATRIIDEVVNKFLDDLGNAKSHLMSLYSACSSEVPHGPVDQKFQSIVIGCALEDQKKIKRRLETLLRNIENSDKAIKLLEHSKGAGSKTLQQNAESRFN
As for B1, the binding result in data set [1] is on record as “binds”.

B2: Near full-length murine Bag2 (Bag2 21-210) (domain or fragment, mouse, UniProt Q91YN9 21-210, looked up)
chain: MADRSSRLLESLDQLELRVEALRDAATAVEQEKEILLEMIHSIQNSQDMRQISDGEREELNLTANRLMGRTLTVEVSVETIRNPQQEESLKHATRIIDEVVSKFLDDLGNAKSHLMSLYSACSSEVPPGPVDQKFQSIVIGCALEDQKKIKRRLETLLRNIDNSDKAIKLLEHAKGAGSKSLQNTDGKFN
A word on the stoichiometry N: it is the number of molecules, sites or subunits per partner or assembly. For B2, the “stoichiometry N” value in the data set “AUC [2]” was at least 4.

B3: Mouse Bag2-BNB (murine Bag2 107-189) (domain or fragment, UniProt Q91YN9 107-189, looked up)
chain: EESLKHATRIIDEVVSKFLDDLGNAKSHLMSLYSACSSEVPPGPVDQKFQSIVIGCALEDQKKIKRRLETLLRNIDNSDKAIK
Usually Kd stands for the constant that tells how readily two partners part at equilibrium. Read a low Kd as tighter binding. For the molecule B3, the dissociation constant (Kd) in “AUC [3]” is 4.5 ± 2 µM.
